# Patent publication US11325966
# Experiments:
# Assay in all cases: cell-based or functional assay
# [1] = biological target: HIV-1 Env of pseudovirus 1006_11_C3_1601 (HIV-1)
# [2] = biological target: HIV-1 Env of pseudovirus 1012_11_TC21_3257 (HIV-1)
# [3] = biological target: HIV-1 Env of pseudovirus 191084 B7-19 (HIV-1)
# [4] = biological target: HIV-1 Env of pseudovirus 191955_A11 (HIV-1)
# [5] = biological target: HIV-1 Env of pseudovirus 211-9 (HIV-1)
# [6] = biological target: HIV-1 Env of pseudovirus 231965.c01 (HIV-1)
# [7] = biological target: HIV-1 Env of pseudovirus 235-47 (HIV-1)
# [8] = biological target: HIV-1 Env of pseudovirus 249M B10 (HIV-1)
# [9] = biological target: HIV-1 Env of pseudovirus 3103.v3.c10 (HIV-1)
# [10] = biological target: HIV-1 Env of pseudovirus 3415.v1.c1 (HIV-1)
# [11] = biological target: HIV-1 Env of pseudovirus 6240_08_TA5_4622 (HIV-1)
# [12] = biological target: HIV-1 Env of pseudovirus 6545.v4.c1 (HIV-1)
# [13] = biological target: HIV-1 Env of pseudovirus AC10.0.29 (HIV-1)
# [14] = biological target: HIV-1 Env of pseudovirus BJOX009000.02.4 (HIV-1)
# [15] = biological target: HIV-1 Env of pseudovirus BJOX010000.06.2 (HIV-1)
# [16] = biological target: HIV-1 Env of pseudovirus CAP45.2.00.G3 (HIV-1)
# [17] = biological target: HIV-1 Env of pseudovirus Ce0682_E4 (HIV-1)
# [18] = biological target: HIV-1 Env of pseudovirus Ce2010_F5 (HIV-1)
# [19] = biological target: HIV-1 Env of pseudovirus Ce704809221_1B3 (HIV-1)
# [20] = biological target: HIV-1 Env of pseudovirus HIV-0013095-2.11 (HIV-1)
# [21] = biological target: HIV-1 Env of pseudovirus MS208.A1 (HIV-1)
# [22] = biological target: HIV-1 Env of pseudovirus PVO.4 (HIV-1)
# [23] = biological target: HIV-1 Env of pseudovirus QH0692.42 (HIV-1)
# [24] = biological target: HIV-1 Env of pseudovirus R1166.c01 (HIV-1)
# [25] = biological target: HIV-1 Env of pseudovirus REJO4541.67 (HIV-1)
# [26] = biological target: HIV-1 Env of pseudovirus SC05_8C11_2344 (HIV-1)
# [27] = biological target: HIV-1 Env of pseudovirus T257-31 (HIV-1)
# [28] = biological target: HIV-1 Env of pseudovirus WEAU_d15_410_787 (HIV-1)
# [29] = biological target: HIV-1 Env of pseudovirus X1254_c3 (HIV-1)
# [30] = biological target: HIV-1 Env of pseudovirus X2088_c9 (HIV-1)
# [31] = biological target: HIV-1 Env of pseudovirus ZM109F.PB4 (HIV-1)
# [32] = biological target: HIV-1 Env of pseudovirus ZM233M.PB6 (HIV-1)
# 92BR020 (HIV-1) = biological target: 92BR020 (HIV-1)
# 92BR020 D325A (HIV-1) = biological target: 92BR020 D325A (HIV-1)
# [33] = biological target: 92BR020 N136A + N156A + N301A (HIV-1)
# [34] = biological target: 92BR020 N156A + N332A (HIV-1)
# [35] = biological target: 92BR020 N301A + N332A (HIV-1)
# 92BR020 N332A (HIV-1) = biological target: 92BR020 N332A (HIV-1)
# 92BR020 N386A (HIV-1) = biological target: 92BR020 N386A (HIV-1)
# 92BR020 N392A (HIV-1) = biological target: 92BR020 N392A (HIV-1)
# [36] = biological target: BG505 (T332N) N295A (HIV-1)
# [37] = biological target: BG505 (T332N) N392A (HIV-1)
# [38] = biological target: HIV-1 Env of pseudovirus 7030102001E5(Rev-) (HIV-1)
substance,measurement,setting,value
BG18 IgG (354BG18) (antibody),IC80 in TZM-bl assay,[1],0.004 µg/mL
same,IC50 in TZM-bl assay,[2],0.003 µg/mL
same,IC80 in TZM-bl assay,[2],0.012 µg/mL
same,IC50 in TZM-bl assay,[3],0.011 µg/mL
same,IC80 in TZM-bl assay,[3],0.043 µg/mL
same,IC50 in TZM-bl assay,[4],> 30 µg/mL
same,IC80 in TZM-bl assay,[4],> 30 µg/mL
same,IC50 in TZM-bl assay,[5],1.3 µg/mL
same,IC80 in TZM-bl assay,[5],5.53 µg/mL
same,IC50 in TZM-bl assay,[6],> 30 µg/mL
same,IC80 in TZM-bl assay,[6],> 30 µg/mL
same,IC50 in TZM-bl assay,[7],0.005 µg/mL
same,IC80 in TZM-bl assay,[7],0.017 µg/mL
same,IC50 in TZM-bl assay,[8],> 30 µg/mL
same,IC80 in TZM-bl assay,[8],> 30 µg/mL
same,IC50 in TZM-bl assay,[9],0.002 µg/mL
same,IC80 in TZM-bl assay,[9],0.005 µg/mL
same,IC50 in TZM-bl assay,[10],0.023 µg/mL
same,IC80 in TZM-bl assay,[10],0.087 µg/mL
same,IC50 in TZM-bl assay,[11],0.003 µg/mL
same,IC80 in TZM-bl assay,[11],0.01 µg/mL
same,IC50 in TZM-bl assay,[12],> 30 µg/mL
same,IC80 in TZM-bl assay,[12],> 30 µg/mL
same,IC80 in TZM-bl assay,[13],0.003 µg/mL
same,IC50 in TZM-bl assay,[14],24.4 µg/mL
same,IC80 in TZM-bl assay,[14],> 30 µg/mL
same,IC50 in TZM-bl assay,[15],> 30 µg/mL
same,IC80 in TZM-bl assay,[15],> 30 µg/mL
same,IC50 in TZM-bl assay,[16],> 30 µg/mL
same,IC80 in TZM-bl assay,[16],> 30 µg/mL
same,IC50 in TZM-bl assay,[17],> 30 µg/mL
same,IC80 in TZM-bl assay,[17],> 30 µg/mL
same,IC50 in TZM-bl assay,[18],> 30 µg/mL
same,IC80 in TZM-bl assay,[18],> 30 µg/mL
same,IC50 in TZM-bl assay,[19],4.39 µg/mL
same,IC80 in TZM-bl assay,[19],> 30 µg/mL
same,IC50 in TZM-bl assay,[20],10.5 µg/mL
same,IC80 in TZM-bl assay,[20],30 µg/mL
same,IC50 in TZM-bl assay,[21],> 30 µg/mL
same,IC80 in TZM-bl assay,[21],> 30 µg/mL
same,IC50 in TZM-bl assay,[22],0.003 µg/mL
same,IC80 in TZM-bl assay,[22],0.013 µg/mL
same,IC50 in TZM-bl assay,[23],0.013 µg/mL
same,IC80 in TZM-bl assay,[23],0.042 µg/mL
same,IC50 in TZM-bl assay,[24],> 30 µg/mL
same,IC80 in TZM-bl assay,[24],> 30 µg/mL
same,IC50 in TZM-bl assay,[25],> 30 µg/mL
same,IC80 in TZM-bl assay,[25],> 30 µg/mL
same,IC50 in TZM-bl assay,[26],0.003 µg/mL
same,IC80 in TZM-bl assay,[26],0.016 µg/mL
same,IC50 in TZM-bl assay,[27],> 30 µg/mL
same,IC80 in TZM-bl assay,[27],> 30 µg/mL
same,IC50 in TZM-bl assay,[28],0.003 µg/mL
same,IC80 in TZM-bl assay,[28],0.012 µg/mL
same,IC50 in TZM-bl assay,[29],0.004 µg/mL
same,IC80 in TZM-bl assay,[29],0.012 µg/mL
same,IC50 in TZM-bl assay,[30],0.004 µg/mL
same,IC80 in TZM-bl assay,[30],0.009 µg/mL
same,IC50 in TZM-bl assay,[31],> 30 µg/mL
same,IC80 in TZM-bl assay,[31],> 30 µg/mL
same,IC50 in TZM-bl assay,[32],2.87 µg/mL
same,IC80 in TZM-bl assay,[32],29.8 µg/mL
PGT121 (antibody),IC50 in TZM-bl assay,92BR020 (HIV-1),0.004 µg/mL
same,IC50 in TZM-bl assay,92BR020 D325A (HIV-1),0.006 µg/mL
same,IC50 in TZM-bl assay,[33],0.001 µg/mL
same,IC50 in TZM-bl assay,[34],> 1 µg/mL
same,IC50 in TZM-bl assay,[35],> 1 µg/mL
same,IC50 in TZM-bl assay,92BR020 N332A (HIV-1),0.08 µg/mL
same,IC50 in TZM-bl assay,92BR020 N386A (HIV-1),0.006 µg/mL
same,IC50 in TZM-bl assay,92BR020 N392A (HIV-1),0.007 µg/mL
same,IC50 in TZM-bl assay,[36],0.014 µg/mL
same,IC50 in TZM-bl assay,[37],0.006 µg/mL
same,IC50 in TZM-bl assay,[1],0.002 µg/mL
same,IC80 in TZM-bl assay,[1],0.008 µg/mL
same,IC50 in TZM-bl assay,[2],0.008 µg/mL
same,IC80 in TZM-bl assay,[2],0.034 µg/mL
same,IC50 in TZM-bl assay,[3],0.038 µg/mL
same,IC80 in TZM-bl assay,[3],0.118 µg/mL
same,IC50 in TZM-bl assay,[4],> 10 µg/mL
same,IC80 in TZM-bl assay,[4],> 10 µg/mL
same,IC50 in TZM-bl assay,[5],0.866 µg/mL
same,IC80 in TZM-bl assay,[5],6.63 µg/mL
same,IC50 in TZM-bl assay,[6],> 10 µg/mL
same,IC80 in TZM-bl assay,[6],> 10 µg/mL
same,IC50 in TZM-bl assay,[7],0.259 µg/mL
same,IC80 in TZM-bl assay,[7],1.6 µg/mL
same,IC50 in TZM-bl assay,[8],> 10 µg/mL
same,IC80 in TZM-bl assay,[8],> 10 µg/mL
same,IC50 in TZM-bl assay,[9],0.024 µg/mL
same,IC80 in TZM-bl assay,[9],0.073 µg/mL
same,IC50 in TZM-bl assay,[10],> 10 µg/mL
same,IC80 in TZM-bl assay,[10],> 10 µg/mL
same,IC50 in TZM-bl assay,[11],0.068 µg/mL
same,IC80 in TZM-bl assay,[11],0.231 µg/mL
same,IC50 in TZM-bl assay,[12],> 10 µg/mL
same,IC80 in TZM-bl assay,[12],> 10 µg/mL
same,IC80 in TZM-bl assay,[38],0.042 µg/mL
same,IC50 in TZM-bl assay,[13],0.019 µg/mL
same,IC80 in TZM-bl assay,[13],0.06 µg/mL
same,IC50 in TZM-bl assay,[14],9 µg/mL
same,IC80 in TZM-bl assay,[14],> 10 µg/mL
same,IC50 in TZM-bl assay,[15],> 10 µg/mL
same,IC80 in TZM-bl assay,[15],> 10 µg/mL
same,IC50 in TZM-bl assay,[16],1.3 µg/mL
same,IC80 in TZM-bl assay,[16],> 10 µg/mL
same,IC50 in TZM-bl assay,[17],> 10 µg/mL
same,IC80 in TZM-bl assay,[17],> 10 µg/mL
same,IC50 in TZM-bl assay,[18],> 10 µg/mL
same,IC80 in TZM-bl assay,[18],> 10 µg/mL
same,IC50 in TZM-bl assay,[19],0.043 µg/mL
same,IC80 in TZM-bl assay,[19],0.285 µg/mL
same,IC50 in TZM-bl assay,[20],> 10 µg/mL
same,IC80 in TZM-bl assay,[20],> 10 µg/mL
same,IC50 in TZM-bl assay,[21],> 10 µg/mL
same,IC80 in TZM-bl assay,[21],> 10 µg/mL
same,IC50 in TZM-bl assay,[22],0.094 µg/mL
same,IC80 in TZM-bl assay,[22],0.45 µg/mL
same,IC50 in TZM-bl assay,[23],0.498 µg/mL
same,IC80 in TZM-bl assay,[23],8.51 µg/mL
same,IC50 in TZM-bl assay,[24],> 10 µg/mL
same,IC80 in TZM-bl assay,[24],> 10 µg/mL
same,IC50 in TZM-bl assay,[25],> 10 µg/mL
same,IC80 in TZM-bl assay,[25],> 10 µg/mL
same,IC50 in TZM-bl assay,[26],0.03 µg/mL
same,IC80 in TZM-bl assay,[26],0.108 µg/mL
same,IC50 in TZM-bl assay,[27],> 10 µg/mL
same,IC80 in TZM-bl assay,[27],> 10 µg/mL
same,IC50 in TZM-bl assay,[28],0.017 µg/mL
same,IC80 in TZM-bl assay,[28],0.062 µg/mL
same,IC80 in TZM-bl assay,[29],0.085 µg/mL
same,IC50 in TZM-bl assay,[30],0.007 µg/mL
same,IC50 in TZM-bl assay,[31],8.92 µg/mL
same,IC80 in TZM-bl assay,[31],> 10 µg/mL
same,IC50 in TZM-bl assay,[32],2.81 µg/mL
same,IC80 in TZM-bl assay,[32],> 10 µg/mL
